This is an account of results in article PMC3734830 (Cell Death & Disease, 2013).

This assay concerns the target cytochrome c (human (endogenous in SK-N-BE), UniProt P99999 1-105). The assay is described as follows: co-IP.

Chain of cytochrome c (P99999 whole entry): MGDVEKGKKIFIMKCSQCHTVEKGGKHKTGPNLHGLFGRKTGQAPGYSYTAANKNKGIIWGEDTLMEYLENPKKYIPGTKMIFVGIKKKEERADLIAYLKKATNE

B1: Neuroglobin (natural protein, human (endogenous in SK-N-BE), UniProt Q9NPG2 1-151, looked up)
chain: MERPEPELIRQSWRAVSRSPLEHGTVLFARLFALEPDLLPLFQYNCRQFSSPEDCLSSPEFLDHIRKVMLVIDAAVTNVEDLSSLEEYLASLGRKHRAVGVKLSSFSTVGESLLYMLEKCLGPAFTPATRAAWSQLYGAVVQAMSRGWDGE
Take B1: the “fold NGB–cytochrome c association in mitochondria after E2” value is approximately 3.3 fold.
